Patent US20220315554A1, “COMPOUNDS COMPRISING A […] LIGAND AND USE THEREOF” (priority 2019, published 2022)

What was measured:
[1] = target: human fibroblast activation protein (FAP) on FAP-expressing human WI-38 fibroblasts (human); test: competition FACS, WI-38 cells, vs Cy5-labeled compound; D: pIC50 ≤6.0
[2] = target: T1, Recombinant human FAP (R&D systems, #3715-SE) (human)
T1 sequence: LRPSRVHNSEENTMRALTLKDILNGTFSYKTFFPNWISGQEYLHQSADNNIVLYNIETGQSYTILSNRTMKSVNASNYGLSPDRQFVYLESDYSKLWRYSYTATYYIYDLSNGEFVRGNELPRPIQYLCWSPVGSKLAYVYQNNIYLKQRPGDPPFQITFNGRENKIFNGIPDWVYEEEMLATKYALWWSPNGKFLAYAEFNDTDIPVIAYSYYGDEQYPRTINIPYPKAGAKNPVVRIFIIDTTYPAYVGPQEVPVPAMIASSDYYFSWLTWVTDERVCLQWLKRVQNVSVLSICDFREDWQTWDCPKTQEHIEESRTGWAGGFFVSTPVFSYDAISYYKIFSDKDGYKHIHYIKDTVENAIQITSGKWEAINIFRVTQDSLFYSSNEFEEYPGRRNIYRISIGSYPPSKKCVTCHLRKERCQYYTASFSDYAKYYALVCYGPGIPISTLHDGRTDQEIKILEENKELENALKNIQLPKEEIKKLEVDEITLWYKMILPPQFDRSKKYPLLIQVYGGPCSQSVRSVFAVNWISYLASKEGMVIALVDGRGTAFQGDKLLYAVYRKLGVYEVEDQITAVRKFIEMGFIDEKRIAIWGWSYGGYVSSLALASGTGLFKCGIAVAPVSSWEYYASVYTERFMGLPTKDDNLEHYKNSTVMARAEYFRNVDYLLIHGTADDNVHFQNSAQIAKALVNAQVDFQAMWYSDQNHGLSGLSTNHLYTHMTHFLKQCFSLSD

[3] = target: human fibroblast activation protein (FAP) on FAP-expressing human WI-38 fibroblasts (human); test: competition FACS, WI-38 cells, vs Cy5-labeled compound; A: pIC50 >8.0

pIC50 Category (FACS) [1]	pIC50 Category (Activity) [2]	pIC50 Category (FACS) [3]	Substance
< 6 pIC50	–	–	Hex-[Cys(3MeBn)-Pro-Tap-Thr-Glu-Phe-Cys]-NH2 (peptide)
< 6 pIC50	–	–	Hex-[Cys(3MeBn)-Pro-Pro-Opc-Glu-Phe-Cys]-NH2 (peptide)
< 6 pIC50	< 6 pIC50	–	Hex-[Cys(3MeBn)-Pro-Pro-Thr-Glu-Bip-Cys]-NH2 (peptide)
< 6 pIC50	–	–	Hex-[Cys(3MeBn)-Pro-Pro-Thr-Glu-Nmf-Cys]-NH2 (peptide)
–	> 8 pIC50	> 8 pIC50	Hex-[Cys(tMeBn(DOTA-AET))-Pro-Pro-Thr-Gln-Phe-Cys]-Bal-OH (peptide)
–	> 8 pIC50	> 8 pIC50	Hex-[Cys(tMeBn(DOTA-AET))-Pro-Pro-Thr-Gln-Phe-AET] (peptide)
< 6 pIC50	< 6 pIC50	–	Hex-[Cys(3MeBn)-Pro-Pro-Thr-Moo-Phe-Cys]-NH2 (peptide)
–	> 8 pIC50	> 8 pIC50	Hex-[Cys(tMeBn(InDOTA-AET))-Pro-Pro-Thr-Gln-Phe-AET] (peptide)
–	> 8 pIC50	> 8 pIC50	Hex-[Cys(3MeBn)-Pro-Pro-Thr-Glu-Phe-Cys]-Asp-Cmp-Arg-NH2 (peptide)
–	> 8 pIC50	> 8 pIC50	Hex-[Cys(3MeBn)-Pro-Pro-Thr-Glu-Phe-Cys]-Asp-Arg-NH2 (peptide)
< 6 pIC50	–	–	Hex-[Cys(3MeBn)-Pro-4Dfp-Thr-Glu-Phe-Cys]-NH2 (peptide)
< 6 pIC50	< 6 pIC50	–	DOTA-Ttds-Hci-[Cys(3MeBn)-Pro-Pro-Thr-Gln-Phe-Cys]-Bal-OH (peptide)
–	> 8 pIC50	> 8 pIC50	Hex-[Cys(3MeBn)-Pro-Pro-Thr-Gln-Phe-Cys]-Bhk(DOTA-Ttds)-OH (peptide)
–	> 8 pIC50	> 8 pIC50	DOTA-Ttds-Nle-[Cys(3MeBn)-Pro-Pro-Thr-Gln-Phe-Cys]-Asp-NH2 (peptide)
–	> 8 pIC50	> 8 pIC50	Ac-Met-[Cys(3MeBn)-Pro-Pro-Thr-Glu-Phe-Cys]-Asp-His-Ala-Arg-Asp-NH2 (peptide)
< 6 pIC50	–	–	Hex-[Cys(3MeBn)-Pro-Eay-Thr-Glu-Phe-Cys]-NH2 (peptide)
–	> 8 pIC50	> 8 pIC50	Hex-[Cys(tMeBn(DOTA-AET))-Pro-Pro-Thr-Gln-Phe-Cys]-Gab-OH (peptide)
–	> 8 pIC50	> 8 pIC50	Ac-Met-[Cys(3MeBn)-Pro-Pro-Thr-Glu-Phe-Cys]-Asp-His-Phe-Arg-NH2 (peptide)
–	> 8 pIC50	> 8 pIC50	DOTA-Ttds-Met-[Cys(3MeBn)-Pro-Pro-Thr-Glu-Phe-Cys]-Asp-His-Phe-Arg-Asp-NH2 (peptide)
–	> 8 pIC50	> 8 pIC50	Ac-met-[Cys(3MeBn)-Pro-Pro-Thr-Glu-Phe-Cys]-Asp-His-Phe-Arg-Asp-NH2 (peptide)
–	> 8 pIC50	> 8 pIC50	DOTA-Ttds-Nle-[Cys(3MeBn)-Pro-Pro-Thr-Glu-Phe-Cys]-Asp-His-Phe-Arg-Asp-NH2 (peptide)
–	> 8 pIC50	> 8 pIC50	Ac-Met-[Cys(3MeBn)-Pro-Pro-Thr-Glu-Phe-Cys]-Asp-His-Tic-Arg-Asp-NH2 (peptide)
–	> 8 pIC50	> 8 pIC50	Hex-[Cys(tMeBn(DOTA-AET))-Pro-Pro-Thr-Gln-Phe-Cys]-Gly-OH (peptide)
–	> 8 pIC50	> 8 pIC50	Hex-[Cys(tMeBn(DOTA-AET))-Pro-Pro-Thr-Gln-Mpa-Cys]-OH (peptide)

pIC50 Category (FACS) [1]	pIC50 Category (Activity) [2]	pIC50 Category (FACS) [3]	Substance
< 6 pIC50	–	–	Hex-[Cys(3MeBn)-Pro-Pro-Orn(Ac)-Glu-Phe-Cys]-NH2 (peptide)
–	> 8 pIC50	> 8 pIC50	Hex-[Cys(3MeBn)-Pro-Pro-Thr-Gln-Phe-Cys]-Bhk(DOTA)-OH (peptide)
–	> 8 pIC50	> 8 pIC50	Ac-Met-[Cys(3MeBn)-Pro-Pro-Thr-Glu-Phe-Cys]-Asp-His-Mpa-Arg-Asp-NH2 (peptide)
–	> 8 pIC50	> 8 pIC50	Hex-[Cys(tMeBn(DOTA-AET))-Pro-Hyp-Thr-Gln-Phe-Cys]-OH (peptide)
< 6 pIC50	–	–	DOTA-Ttds-Hgl-[Cys(3MeBn)-Pro-Pro-Thr-Gln-Phe-Cys]-Bal-OH (peptide)
–	> 8 pIC50	> 8 pIC50	Ac-Met-[Cys(3MeBn)-Pro-Pro-Thr-Glu-Phe-Cys]-Asp-His-Aic-Arg-Asp-NH2 (peptide)
–	> 8 pIC50	> 8 pIC50	Ac-Met-[Cys(3MeBn)-Pro-Pro-Thr-Glu-Phe-Cys]-Asp-His-Nmf-Arg-Asp-NH2 (peptide)
< 6 pIC50	< 6 pIC50	–	Hex-[Cys(3MeBn)-Pro-Pro-Thr-Nme-Phe-Cys]-NH2 (peptide)
–	> 8 pIC50	> 8 pIC50	H-met-[Cys(3MeBn)-Pro-Pro-Thr-Glu-Phe-Cys]-Asp-His-Phe-Arg-Asp-NH2 (peptide)
< 6 pIC50	–	–	Hex-[Cys(3MeBn)-Pro-Pro-Thr-Glu-Tic-Cys]-NH2 (peptide)
–	> 8 pIC50	> 8 pIC50	Ac-Met-[Cys(3MeBn)-Pro-Pro-Thr-Glu-Thi-Cys]-Asp-His-Phe-Arg-Asp-NH2 (peptide)
–	> 8 pIC50	> 8 pIC50	DOTA-Ttds-Nle-[Cys(3MeBn)-Pro-Pro-Thr-Gln-Phe-Cys]-Bal-OH (peptide)
–	> 8 pIC50	> 8 pIC50	Ac-Met-[Cys(3MeBn)-Pro-Pro-Thr-Glu-Phe-Cys]-Asp-His-Phe-Arg-Asp-NH2 (peptide)
–	> 8 pIC50	> 8 pIC50	Ac-Met-[Cys(3MeBn)-Pro-Pro-Thr-Glu-Phe-Cys]-Asp-His-Amf-Arg-Asp-NH2 (peptide)
–	> 8 pIC50	> 8 pIC50	Ac-Met-[Cys(3MeBn)-Gly-Pro-Thr-Glu-Phe-Cys]-Asp-His-Phe-Arg-Asp-NH2 (peptide)
–	> 8 pIC50	> 8 pIC50	Hex-[Cys(tMeBn(DOTA-AET))-Pro-Pro-Thr-Gln-Otf-Cys]-OH (peptide)
–	> 8 pIC50	> 8 pIC50	Hex-[Cys(tMeBn(DOTA-AET))-Pro-Pro-Thr-Gln-1Ni-Cys]-OH (peptide)
–	> 8 pIC50	> 8 pIC50	Hex-[Cys(3MeBn)-Pro-Pro-Thr-Glu-Phe-Cys]-Asp-His-phe-Arg-Ttds-Lys(DOTA)-NH2 (peptide)
–	> 8 pIC50	> 8 pIC50	Ac-Met-[Cys(3MeBn)-Pro-Pro-Thr-Glu-Phe-Cys]-Asp-His-phe-Arg-Asp-NH2 (peptide)
–	> 8 pIC50	> 8 pIC50	Ac-Met-[Cys(3MeBn)-Pro-Pro-Thr-Glu-Phe-Cys]-Asp-His-Ppa-Arg-Asp-NH2 (peptide)
–	> 8 pIC50	> 8 pIC50	Hex-[Cys(tMeBn(DOTA-AET))-Pro-Pro-Thr-Gln-Phe-Cys]-Nmg-OH (peptide)
< 6 pIC50	–	–	Hex-[Cys(3MeBn)-Pro-Pro-Thr-Glu-Phe-Pen]-NH2 (peptide)
–	> 8 pIC50	> 8 pIC50	Hex-[Cys(3MeBn)-Pro-Pro-Thr-Glu-Phe-Cys]-Asp-Pamb-Arg-NH2 (peptide)
–	> 8 pIC50	> 8 pIC50	Hex-[Cys(tMeBn(DOTA-AET))-Pro-Pro-Thr-Gln-Phe-Cys]-Bhf-OH (peptide)
